Assay results: paper PMC8133803

Target: SARS-CoV-2 spike S1+S2 ECD-His (SARS-CoV-2 (2019-nCoV), UniProt P0DTC2 16-1213)
Experiment: SPR

B1: apt-NS (ssDNA)
DNA: CACCAATATTTACGTTCTACTCTCCAATA
modifications: 5' BiotinTEG
B1: no binding.
